Measurements: US20080005813A1, “Polypeptide Having Function of Cinnamyl Alcohol Dehydrogenase, Polynucleotide Encoding the Polypeptide and Those Uses” (GENOMINE, INC., priority 2005, published 2008)

B1: AtCAD-H protein (cinnamyl alcohol dehydrogenase) (Arabidopsis thaliana) (protein)
chain: MANSGEGKVVCVTGASGYIASWLVKFLLSRGYTVKASVRDPSDPKKTQHLVSLEGAKERLHLFKADLLEQGSFDSAIDGCHGVFHTASPFFNDAKDPQAELIDPAVKGTLNVLNSCAKASSVKRVVVTSSMAAVGYNGKPRTPDVTVDETWFSDPELCEASKMWYVLSKTLAEDAAWKLAKEKGLDIVTINPAMVIGPLLQPTLNTSAAAILNLINGAKTFPNLSFGWVNVKDVANAHIQAFEVPSANGRYCLVERVVHHSEIVNILRELYPNLPLPERCVDENPYVPTYQVSKDKTRSLGIDYIPLKVSIKETVESLKEKGFAQF

Assays:
[1] = target: AtCAD-H protein (cinnamyl alcohol dehydrogenase) (Arabidopsis thaliana, UniProt F4K152); assay: Enzyme activity of purified AtCAD-H protein, backward reaction (Lineweaver-Burk); assay type: biochemical; settings: substrate coniferyl alcohol, NADPH^+ in place of NADPH, Tris-HCl pH 9.3, 37° C.
Protocol: (§1) In order to identify whether the isolated protein has the cinnamyl alcohol dehydrogenase function related to lignin biosynthesis, the enzyme activity in forward reaction was measured using coniferaldehyde as a substrates. Also, the enzyme activity in backward reaction was measured using coniferyl alcohol as a substrates so as to identify whether the enzyme also involves in backward reaction or not.
(§2) The enzyme activities were measured at 405 nm using a microplate reader (Bio-rad Backman Microplate Reader) adjusted at 37° C. according to the method of Mitchell et al. (Mitchell et al. Planta, 208: 31-47, 1998). In […] of the reaction solution for the measurement of the enzyme activity in forward reaction, 100 mM Tris-buffer (Tris-HCl pH 9.3), […], and 2-3 μg of the protein purified in Example 2-2 were contained. The conditions of the reaction solution for the measurement of the enzyme activity in backward reaction is the same as that of the reaction solution of forward reaction, except that 100 mM NADPH^+ was contained in place of 100 mM NADPH. […]
(§3) Meanwhile, the enzyme activity of the purified protein was suitable for Michaelis-Menten kinetics for 100 mM coniferyl alcohol, that is, the substrate of backward reaction. The reaction velocities were measured according to variation of substrate concentration, and represented in a Lineweaver-Burk's plot (see FIG. 2b). […]

[2] = substrate: COc1cc(/C=C/C=O)ccc1O; assay: Enzyme activity of purified AtCAD-H protein, forward reaction (Lineweaver-Burk); assay type: biochemical, Arabidopsis thaliana; settings: other: forward reaction, substrate coniferaldehyde, NADPH, Tris-HCl pH 9.3, 37° C., 405 nm
Protocol: as §1, §2
The enzyme activity of the purified protein was suitable for Michaelis-Menten kinetics for 100 mM coniferaldehyde, that is, the substrate of forward reaction. The reaction velocities were measured according to variation of substrate concentration, and represented in a Lineweaver-Burk's plot (see FIG. 2a).

[3] = substrate: COc1cc(/C=C/CO)ccc1O; assay: Enzyme activity of purified AtCAD-H protein, backward reaction (Lineweaver-Burk); assay type: biochemical, Arabidopsis thaliana; settings: other: backward reaction, substrate coniferyl alcohol, NADPH^+ in place of NADPH, Tris-HCl pH 9.3, 37° C.
Protocol: as §1, §2, §3

Row | Molecule | Vmax [1] | Km [2] [µM] | Km [3] [µM]
1 | COc1cc(/C=C/CO)ccc1O [coniferyl alcohol] | 0.102 | – | –
2 | B1 | – | 19.8 | 374
